Test results published in patent US20250171560A1 (INNOVATIVE CELLULAR THERAPEUTICS, published 2025).

T1: recombinant UPK2 extracellular domain (UPK2-His) (Homo sapiens (Human), UniProt O00526 85-155)
T1 construct: Made in E. coli; not shown: His tag
T1 sequence: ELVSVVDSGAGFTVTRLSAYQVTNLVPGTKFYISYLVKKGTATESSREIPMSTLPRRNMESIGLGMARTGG

T2: recombinantly expressed PAP (ACPP-His) (Homo sapiens (Human), UniProt P15309 33-379, limits assumed)
T2 construct: ACPP gene cloned into PTSE-His, expressed in HEK293, purified on Histrap FF; also called serum prostatic acid phosphatase; ACPP antigen; not shown: His tag from vector PTSE-His
T2 sequence: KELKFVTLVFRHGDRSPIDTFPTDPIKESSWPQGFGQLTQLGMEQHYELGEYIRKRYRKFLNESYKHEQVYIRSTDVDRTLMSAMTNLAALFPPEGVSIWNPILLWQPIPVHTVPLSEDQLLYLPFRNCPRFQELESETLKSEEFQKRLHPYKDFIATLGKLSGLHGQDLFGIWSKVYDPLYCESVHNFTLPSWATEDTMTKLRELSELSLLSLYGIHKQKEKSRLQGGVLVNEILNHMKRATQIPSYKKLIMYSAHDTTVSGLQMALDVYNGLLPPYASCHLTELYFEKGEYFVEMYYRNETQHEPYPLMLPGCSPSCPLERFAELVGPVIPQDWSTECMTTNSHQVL


Experiments:
[1] = target: T1, recombinant UPK2 extracellular domain …; experiment: phage ELISA, purified scFv phage on UPK2-his coated at 0.5 ug/ml, OD490
[2] = target: T1, recombinant UPK2 extracellular domain …; experiment: ELISA, antibody dilution series on UPK2-his coated at 0.5 ug/ml, OD490
Procedure: The ability of recombinant whole antibodies to bind antigen UPK2-His was analyzed using a classical ELISA method.

[3] = target: T1, recombinant UPK2 extracellular domain …; experiment: SPR, BIAcore X-100; antibody captured by anti-human antibody on chip, UPK2-His as mobile phase
Procedure: (§1) The affinity of the eight monoclonal antibodies was analyzed using GE's BIAcore X-100. Affinity analysis was performed using a conventional procedure by first capturing the human monoclonal antibody with an anti-human antibody coated on a chip, and then using different concentrations of recombinant UPK2-His as the mobile phase for affinity analysis. […] Among them, the binding and dissociation of S7F11/S7G7 were slow, and the binding of S3D10 was too slow. When the three monoclonal antibodies were analyzed by BIAcore X-100 for affinity analysis, the automatic fitting of KD was poor, and the data was for reference only.

[4] = target: T1, recombinant UPK2 extracellular domain …; experiment: SPR, BIAcore X-100; antibody captured, UPK2-His as mobile phase; remark U-value = 15, fit poor, for reference only
Procedure: as §1

[5] = target: T1, recombinant UPK2 extracellular domain …; experiment: SPR, BIAcore X-100; antibody captured, UPK2-His as mobile phase; remark Kd overrun, fit poor, for reference only
Procedure: as §1

[6] = target: T2, recombinantly expressed PAP (ACPP-His); experiment: SPR, BIAcore X-100; antibody captured by anti-human antibody on chip, recombinant PAP as mobile phase; speculated value, read as weaker than 100 nM because the next sentence says S5D1 has the higher affinity
Procedure: (§2) For the affinity assay in FIG. 10, the affinity of two monoclonal antibodies, S5D1 and S5F2, was analyzed using GE's BIAcore X-100 Biomolecular Interaction Analyzer. Affinity analysis was performed using a conventional procedure. The human monoclonal antibody S5D1 or S5F2 was captured using an anti-human antibody coated on a chip. Affinity analysis was then performed using different concentrations of recombinantly expressed PAP as the mobile phase. […] S5D1 has a higher affinity for ACPP antigen.

[7] = target: T2, recombinantly expressed PAP (ACPP-His); experiment: SPR, BIAcore X-100; antibody captured by anti-human antibody on chip, recombinant PAP as mobile phase
Procedure: as §2

[8] = target: T2, recombinantly expressed PAP (ACPP-His); experiment: BIAcore X-100, antibody captured by anti-human antibody on the chip, recombinant PAP as the mobile phase
Procedure: as §2

[9] = target: T1, recombinant UPK2 extracellular domain …; experiment: SPR, BIAcore X-100; antibody captured by anti-human antibody on chip, UPK2-His as mobile phase; exponent as printed, koff/kon gives 2.34e-8
Procedure: as §1

Row | Binder | EC50 (read off the curve) [2] [nM] | Kd [3] [nM] | also measured
1 | scFv UPK2-S2B7 (phage display clone) (scFv, also called clone S2B7) scFv: EVQLQQSGAELMKPGTSVKMSCKAAGYTFTKYWIGWVKQRPGHGLEWIGDIYPGGGYTLFNEKFKGKATLTADTSSSTAYMQLSSLTSEDSAIYYCARGNYWGQGTTLTVSSGGGGSGGGGSGGGGSDVVMTQTPLTLSVTIGQPASISCKSSQSLLDSDGKTYLNWLLQRPGQSPKRLIYLVSKLDSGVPDRFTGSGSGTDFTLKISRVEAEDLGVYYCWQGTHFPHTFGGGTKLEMK | – | – | EC50 (read off the curve) [1]: ~3e+10 cfu/ml
2 | recombinant anti-UPK2 monoclonal antibody S3A4 (murine-human chimeric) (antibody, V domains shown, Murine variable regions, human constant regions (vectors pTSEG1n, pTSEK), HEK293; also called UPK2-S3A4) VH: EVKLKQSGAELVKPGASVKLSCKASGYTLTSYYIYWVKQRPGQGLEWIGGISPSNGNTYFTEKFKNMATLTVDKSSNTAYMQLSSLTSEDSAVYYCARNYDYDVGFAYWGQGTLVTVSS VL: DVVMTQTPLSLPVSLGDQASISCRSSQSIVHSNGNTYLEWYLQKPGQSPKLLIYKVSNRFSGVPDRFSGSGSGTDFTLKISRVEAEDLGVYYCFQGSHVPFTFGSGTKLEIK | ~0.6 | 27.1 | –
3 | recombinant anti-UPK2 monoclonal antibody S3C10 (murine-human chimeric) (antibody, V domains shown, Murine variable regions, human constant regions (vectors pTSEG1n, pTSEK), HEK293; also called UPK2-S3C10) VH: QVQLKESGGGLVQPGESLKLSCESSEFPFPSHDMSWVRKTPEKRLELVAAINSDGGSTYYPDTMERRFIISRDNTKKTLYLQMSSLRSEDTALYYCASLPTFAYWGQGTLVTVSA VL: not shown | ~0.5 | 0.911 | –
4 | recombinant anti-UPK2 monoclonal antibody S7F9 (murine-human chimeric) (antibody, V domains shown, Murine variable regions, human constant regions (vectors pTSEG1n, pTSEK), HEK293; also called UPK2-S7F9) VH: QVQLKQSGPGLVRPGASVTMSCKASGYTFTSNWMHWVKQRPGQGLDWIGMIDPSNSDTRLNQKFKDKATLNVDKSSNTAYMQLSSLTSDDSAVYYCMRGGGDYWGQGTTLTVSS VL: not shown | ~0.5 | 16.7 | –
5 | recombinant anti-UPK2 monoclonal antibody S3D10 (murine-human chimeric) (antibody, V domains shown, Murine variable regions, human constant regions (vectors pTSEG1n, pTSEK), HEK293; also called UPK2-S3D10) VH: QVQLQQSGAELVRSGASVKLSCTDSGFNIKDYYMNWVKQRPEQGLEWIGWIDPENGVTQYDPKFQGKATVTADTFSNTAYLQLSSLTSEDTAVYYCNANYKYDWFGYWGQGTLVTVSA VL: NIVMTQSPSSLSASLGERVSLTCRASQEISGYLSWLQQKPDGTIKRLIYAASTLDSGVPERFSGSRSGSDYSLTISSLESEDFADYYCLQYASYPWTFGGGTKLEMK | – | – | Kd [4]: 4060 nM
6 | recombinant anti-UPK2 monoclonal antibody S7F11 (murine-human chimeric) (antibody, V domains shown, the first set is used here; Murine variable regions, human constant regions; also called UPK2-S7F11) VH: EVQLKESGAELVRSGASVKLSCTASAFNIKDYYMNWMKQRPEQGLEWIGWIDPENGDTKYAPKFQGKATITADTSSSTAYLQLTSLTSEDSAVFYCNVNYKYDWFAYWGQGTLVTVSA VL: DVVMTQSQKFMSTSVGDRVSVTCKASQNVGTNVAWYQQKPGQSPRALIYSASYRYSGVPDRFTGSGSGTDFTLTISNVQSEDLAEYFCQQYNTYPWTFGGGTKLEIK | – | – | Kd [5]: 2.32 nM
7 | ACPP antibody S5F2 (human full antibody) (antibody, V domains shown, Human full antibody from vectors pTSEG1n and pTSEK, HEK293) VH: QVQLVQSGAEVKKPGSSVKVSCKASEDTFSSYVISWVRQAPGQGLEWMGAFIPLLGRVHYAQEFQGRLTITADESTGTAYMELKGLRSDDTAMYYCARDQGFAGDDAFDIWGQGTMVTVSS VL: LPVLTQPPSASGTPGQRVTISCSGSSSNIGSNAVDWYQQLPGTAPKLLIYTNNRRPSGVPDRFSGSKSGTSGSLAISGLQFEDEADYYCAAWDDSLSGVIFGGGTKVTVL | – | – | Kd [6]: > 100 nM
8 | ACPP antibody S5D1 (human full antibody) (antibody, V domains shown, Variable regions cloned into vectors pTSEG1n (heavy) and pTSEK (light) and expressed in HEK293 as human full antibody; also called monoclonal antibody S5D1) VH: EVQLVQSGAEVKKPGESLKISCKGSGYTFTNYWIGWVRQMPGKGLEWMGRIYPSDSYTNYSPSFQGQVTISADKSISTAYLQWSSLKASDTAMYYCARDLEPTHHYSWGQGTLVTVSS VL: QSVLTQPASVSGSPGQSVTISCTGTSSDVGGYNYVSWYQQHPGKPPKLMIYEVSKRPSGVPDRFSGSKSGNTASLTISGLQAEDEADYYCSSHTSSNTLIFGGGTKVTVL | – | – | Kd [7]: ~9 nM; Kd [8]: 9.02 nM
9 | recombinant anti-UPK2 monoclonal antibody S2E2 (murine-human chimeric) (antibody, V domains shown, Murine variable regions, human constant regions (vectors pTSEG1n, pTSEK), HEK293; also called UPK2-S2E2) VH: QVKLQQSGPELVRPGASVKMSCKASGYTFTTYWMHWVKQRPGQGLEWIGMIDPSNSDTRLNQKFKDKATLNVDTSSNTAYMHLSSLTSEDSAVYYCTLGGTEYWGQGATLTVSS VL: SIVMTQSPATLSVTPGDRVSLSCRASQSIGDYLHWFQQKSHESPRLLIKYASQSISGIPSRFSGSGSGSDFTLIINTMEPEDVGVYYCQNAHTYPYTFGGGTKLEIK | ~0.5 | 2.82 | –
10 | recombinant anti-UPK2 monoclonal antibody S2B7 (murine-human chimeric) (antibody, V domains shown, Murine variable regions, human constant regions (vectors pTSEG1n, pTSEK); also called UPK2-S2B7) VH: EVQLQQSGAELMKPGTSVKMSCKAAGYTFTKYWIGWVKQRPGHGLEWIGDIYPGGGYTLFNEKFKGKATLTADTSSSTAYMQLSSLTSEDSAIYYCARGNYWGQGTTLTVSS VL: not shown | ~0.5 | – | Kd [9]: 23.4 nM
